# Target: ScNtx-NT647, fluorescently labeled variant of ScNtx
# Experiment: MST; 5 nM ScNtx-NT647 held constant, Torpedo nAChR in asolectin-MSP1E3D1 nanodiscs titrated 0.5 nM to 1 μM; PBS pH 7.4, 0.05% Tween, 20 °C, high MST power, 4 % excitation power, triplicate; apparent affinity
substance,measurement,value
"Torpedo muscle-type nicotinic acetylcholine receptor, native, purified, reconstituted in asolectin-MSP1E3D1 lipidic nanodiscs (from UniProt P02710 25-461; P02714 18-506; P02718 22-522; P02712 25-493) (complex)",Kd,28 nM

# From paper PMC9352773
